The results in this text go back to publication PMC12052123, “Investigating the quaternary structure of a homomultimeric catechol 1,2-dioxygenase: An integrative structural biology study” (PLOS One, 2025).

This data set concerns the molecule itself. Put plainly: native gel or EMSA; semi-native PAGE (8%), Tris-Gly buffer system without detergent or denaturing agents, 100 V, 18 °C, Coomassie; lyophilized and reconstituted SfC12DO.

B1: catechol 1,2-dioxygenase from Stutzerimonas frequens GOM2 (enzyme, UniProt A0ABX6XR78 1-312, looked up)
chain: MTVKISHTNDVQQFFKEASGFNNDAGSSRLKTVINRVLADTARIIEDLEITQDEFWKAVDYINRLGGRHEAGLLVAGLGLEHYLDLLQDAKDEQEGLVGGTPRTIEGPLYVAGAPIAEGEVRMDDDSEEGVATTMFLQGRVTGPDGKPLAGATVDLWHANTKGNYSYFDKSQSEYNLRRRIVTDENGYYRARSIVPSGYGCSPDGPTQEVLDMLGRHGQRPAHIHFFISAPGHRHLTTQINLAGDKYLWDDFAYATRDGLVGDIRFIDDAEAARARGVQGRFAEVDFDFQLQKAPAPQAEQRSKRPRALQQA
notes: catechol 1,2-dioxygenase encoded by the CatA gene of Stutzerimonas frequens GOM2 (Pseudomonas stutzeri GOM2); regions are labelled up to residue 312; Non-heme Fe3+ enzyme; Number of copies depends on the sample: dimer when non-lyophilized; dimer, tetramer, (hexamer), octamer and >20-mer after lyophilization and reconstitution; also called SfC12DO; PsC12DO; source: used non-lyophilized, or …
In the case of B1, the “stoichiometry N” value amounted to 6.
